B1: S009-F7.2.3 (antibody, human IgG1, kappa, V domains shown)
VH: ELQLVESGGDLVKPGGSLKLSCAASGFTFSSNGMSWLRQTPDKRLEWVATISSGGRYTYYPDSVKGRFTISRDNAKNTLYLQMSSLKSEDTAMYYCARRGIYDYFDCWGQGTTLTVSS
VL: DIQMTQSPASLSISVGETVTITCRASENIHSSLAWYQQKQGKSPQLLVYAATNLADGVPSRFSGSGSGSQYSLKINSLQSEDFGTYYCQHFWGTPWTFGGGTKLDIKR
notes: Human-murine chimeric antibody, human IgG1 heavy and kappa light constant regions
B2: S009-F7.18.10 (antibody, human IgG1, kappa, V domains shown)
VH: QVQLQQSGAELVRPGTSVKVSCKASGYAFTNYLIEWVKQRPGQGLEWIGVINPGSGGTKYNEKFKGKATLTADKSSSTAYMQLSSLTSEDSAVYFCASDYDYDPFAYWGQGTLVTVSA
VL: DIVMTQSHKFMSTSVGDRVSITCKASQDVSTAVAWYQRKPGQSPKLLIYWASTRHTGVPDRFTGSGSGTDYTLTISYMQAEDLALYYCQQHYSTPYTFGGGTKLEIKR
notes: as for B1
B3: S009-F7.6.17 (antibody, human IgG1, kappa, V domains shown)
VH: QVQLQQSGAELARPGASVKMSCKASGYTFTTYTMHWVKQRPGQGLEWIGYISPTGDFTKYNQKFKDKATLTTDKSSNTAFMQLSSLTSEDSAVYYCARWNGTVWFAYWGQGTLVTVSA
VL: DIVMTQSQKFMSTSVGDRVTVTCKASQALGTNVAWYQQKPGQSPKVLIYSASYRYSGVPYRFAGGGSGTDFTLTITNVQSEDLAEYFCQQYNNYPLTFGAGTKLELKR
notes: as for B1
B4: S009-F7.23.19 (antibody, human IgG1, kappa, V domains shown)
VH: EVKLVESGGGLVQPGGSLSLSCAASGFTFTDYYMSWVRQPPGKALEWLGFIRSKANAYTTEYSASVKGRFTISRDNSQSILYLQMNDLRAEDSATYYCARYYYYGSGYVWYFDVWGTGTTVTVSS
VL: B3 VL with T20S, A28S, L29V, S43F, V46A, Y60D, A63T, G65S, T76I, N93S
notes: as for B1
B5: S009-F7.26.15 (antibody, human IgG1, kappa, V domains shown)
VH: DVQLQESGPGLVKPSQTVFLTCTVTGISITTGNYRWSWIRQFPGNKLEWIGYIYYTGFITYNPSLTSRTTITRDTPKNQFFLEMKSLTAEDTATYYCARDDYDYDVFAYWGQGTLVTVSA
VL: DIQMTQSPASLSASVGETVTITCRASGNIHNYLAWYHQKQGKSPQFLVYKAKTLADGVPSRFSGSGSGTQYSLKINRLQPEDFGSYYCQHFLSIPLTFGAGTKLELKR
notes: as for B1
B6: S009-F7.25.19 (antibody, human IgG1, kappa, V domains shown)
VH: QVQLQQPGTELVKPGASVKLSCKASGYTFTSYWMHWVKQRPGQGLEWIGNIIPSNGGTKYNEKFKSKATLTVDKSSSTAYMQLSSLTSEDSAVYYCSPHYYGGSPGFAYWGQGTLITVSA
VL: DIVMTQSQKFMSTSVGDRVSVICKASQNVGTNVAWYQQKPGQSPKALIYSASYRYSGVPDRFTGSGSGTDFTLTISNVQSEDLAEYFCQQYNSYPLTFGGGTKLEIKR
notes: as for B1
B7: S009-F7.11.11 (antibody, human IgG1, kappa, V domains shown)
VH: EVQLQQSGPELVKPGASVKIPCKASGYTITDYNMDWVKQSRGKSLEWIGDVFPYNGDSIYNQKFEGRATLTVDKYSSTAYMELRGLTSEDTAVYFCARRKTGTGYFDVWGTGTTVTVSS
VL: QLVLTQSPAIMSASPGEKVTLTCSASSSVSSTYLSWYLQKPGSSPKLWIYSTSNLASGVPARFSGSGSGTSYSLTISSMEAEDAASYFCHQWSSYPYTFGGGTKLEIKR
notes: as for B1
B8: S009-F7.12.13 (antibody, human IgG1, kappa, V domains shown)
VH: EVQLQQSGPELVKPGASVKIPCKASGYTFTDYNMDWVKQSHGKGLEWIGDINPNTDDTIYNQKFNGKATLTVDKSSSTAYMELRSLTSEDTAVYYCSRRLIGTGYFDVWGTGTTVTVSS
VL: B7 VL with L2I, S30I, S35C, L38R, K46E, S94N, E106G, I107M
notes: as for B1

Where a chain is given by its changes, count along the chain named.

T1 sequence (Q13421 495-606): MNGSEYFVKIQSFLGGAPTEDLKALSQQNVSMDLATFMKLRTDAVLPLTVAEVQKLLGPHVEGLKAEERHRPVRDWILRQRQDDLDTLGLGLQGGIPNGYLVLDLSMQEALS
T2 sequence (Q13421 other isoform, or with tags, fused parts or gaps): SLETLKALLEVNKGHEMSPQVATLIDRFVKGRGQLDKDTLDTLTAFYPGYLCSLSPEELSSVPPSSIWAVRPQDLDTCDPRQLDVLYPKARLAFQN

One assay has as its target T1, human MSLN-R3-his protein (human, UniProt Q13421 487-598).
T1 construct: it is put last here; also called human MSLN-R3 protein; hMSLN-R3-his; not shown: His tag
Put plainly: ELISA on coated antigen, antibody 0.02 nM.
Turning to B1, the OD450 is 0.06 OD.
Still for that read-out and setting: as for B2, the figure is 0.05 OD.
Still for that read-out and setting: the result for B3 reads 1.55 OD; that for B4, 0.88 OD.
The same measure, in the same setting: as for B5, the figure is 1.63 OD; as for B6, 1.81 OD; as for B7, 0.32 OD.
For the molecule B8, the OD450 is 0.36 OD.

The target of a further assay is T1, human MSLN-R3-his protein. Nature of the assay: ELISA on coated antigen, antibody 2 nM. (An ELISA detects its analyte on a solid surface through an enzyme-linked reagent.)
B1 had an OD450 of 0.07 OD.
B2: the OD450 was 0.07 OD.
On the same count and under the same terms, the result for B3 reads 2.86 OD; that for B4, 2.52 OD.
The same measure, in the same setting: the result for B5 reads 2.79 OD.
On the same count and under the same terms, as for B6, the figure is 2.76 OD; as for B7, 2.41 OD; as for B8, 2.48 OD.

Another assay addresses T1, human MSLN-R3-his protein. Put plainly: ELISA on coated antigen, antibody 0.002 nM.
B1: the OD450 worked out at 0.06 OD.
In turn, B2 registered an OD450 of 0.05 OD.
B3 had an OD450 of 0.56 OD.
Same read-out and setting: as for B4, the figure is 0.25 OD; as for B5, 0.6 OD.
On the same count and under the same terms, the result for B6 reads 0.9 OD; that for B7, 0.09 OD; that for B8, 0.15 OD.

Another assay concerns the target T2, human MSLN-R2-his protein (human, UniProt Q13421 391-486).
T2 construct: it is put last here; also called human MSLN-R2 protein; hMSLN-R2-his; not shown: His tag
Put plainly: ELISA on coated antigen, antibody 0.002 nM.
Turning to B1, the OD450 amounted to 0.41 OD.
Still for that read-out and setting: as for B2, the figure is 0.05 OD; as for B3, 0.05 OD.
On the same count and under the same terms, the result for B4 reads 0.05 OD.
B5: the OD450 amounted to 0.05 OD.
On to B6, for which the OD450 stood at 0.05 OD.
The same measure, in the same setting: as for B7, the figure is 0.05 OD; as for B8, 0.05 OD.

A further assay concerns the target T2, human MSLN-R2-his protein. Nature of the assay: ELISA on coated antigen, antibody 0.0002 nM.
Procedure: (§1) The plate was sealed with a plastic film and incubated at 4° C. overnight. The next day, the plate was washed twice with PBST, and a blocking buffer [PBS+2% (w/w) BSA] was added for blocking at room temperature for 2 h. The blocking buffer was discarded, and a chimeric antibody or negative control antibody serially diluted from 100 nM was added at 50 μL/well. After incubation at 37° C. for 2 h, the plate was washed 3 times with PBST. […] After incubation at 37° C. for 2 h, the plate was washed 5 times with PBST. A TMB substrate was added at 50 μL/well for incubation at room temperature for 5-10 min, and then a stop solution (1.0 N HCl) was added at 50 μL/well.
In turn, B1 displayed an OD450 of 0.14 OD.
Consider B2, for which the OD450 was 0.05 OD.
On the same count and under the same terms, the result for B3 reads 0.05 OD; that for B4, 0.14 OD; that for B5, 0.05 OD.
Same read-out and setting: the result for B6 reads 0.05 OD; that for B7, 0.05 OD.
Still for that read-out and setting: the result for B8 reads 0.05 OD.

The target of another assay is T2, human MSLN-R2-his protein. Nature of the assay: ELISA on coated antigen, antibody 2 nM.
Procedure: as §1
Molecule B1 showed an OD450 of 2.37 OD.
The same measure, in the same setting: the result for B2 reads 0.09 OD.
Turning to B3, the OD450 is 0.05 OD.
On the same count and under the same terms, the result for B4 reads 0.05 OD; that for B5, 0.05 OD; that for B6, 0.06 OD.
Still for that read-out and setting: as for B7, the figure is 0.05 OD.
On the same count and under the same terms, as for B8, the figure is 0.05 OD.

The target in the next assay is T1, human MSLN-R3-his protein. Put plainly: ELISA on coated antigen, antibody 0.0002 nM.
Procedure: as §1
B1: the OD450 amounted to 0.06 OD.
On the same count and under the same terms, the result for B2 reads 0.05 OD.
On to B3, for which the OD450 was 0.13 OD.
On the same count and under the same terms, as for B4, the figure is 0.08 OD; as for B5, 0.16 OD; as for B6, 0.3 OD.
On the same count and under the same terms, as for B7, the figure is 0.06 OD; as for B8, 0.06 OD.

Another assay addresses T1, human MSLN-R3-his protein. Put plainly: ELISA on coated antigen, antibody 20 nM.
Turning to B1, the OD450 worked out at 0.1 OD.
Same read-out and setting: the result for B2 reads 0.14 OD; that for B3, 2.81 OD; that for B4, 2.63 OD.
With B5, the OD450 was found to be 2.73 OD.
Still for that read-out and setting: as for B6, the figure is 2.71 OD.
Same read-out and setting: as for B7, the figure is 2.58 OD; as for B8, 2.67 OD.

Another assay concerns the target T1, human MSLN-R3-his protein. Put plainly: ELISA on coated antigen, antibody 200 nM.
Procedure: as §1
B1: the OD450 amounted to 0.2 OD.
Same read-out and setting: as for B2, the figure is 0.29 OD.
The molecule B3 came in with an OD450 of 3.1 OD.
In the case of B4, the OD450 stood at 2.77 OD.
B5 registered an OD450 of 2.74 OD.
Same read-out and setting: as for B6, the figure is 2.83 OD; as for B7, 3.12 OD.
On the same count and under the same terms, as for B8, the figure is 2.96 OD.

For the next assay, the target named is T2, human MSLN-R2-his protein. Nature of the assay: ELISA on coated antigen, antibody 0.2 nM.
Procedure: as §1
B1 gave an OD450 of 2.12 OD.
Consider B2, for which the OD450 turned out to be 0.06 OD.
In turn, B3 showed an OD450 of 0.05 OD.
Same read-out and setting: the result for B4 reads 0.05 OD; that for B5, 0.05 OD.
Still for that read-out and setting: as for B6, the figure is 0.05 OD; as for B7, 0.05 OD.
The same measure, in the same setting: as for B8, the figure is 0.05 OD.

A further assay deals with T2, human MSLN-R2-his protein. Put plainly: ELISA on coated antigen, antibody 200 nM.
Procedure: as §1
Take B1: the OD450 amounted to 2.74 OD.
Still for that read-out and setting: the result for B2 reads 0.14 OD; that for B3, 0.13 OD; that for B4, 0.09 OD.
On the same count and under the same terms, the result for B5 reads 0.18 OD; that for B6, 0.31 OD; that for B7, 0.07 OD.
Still for that read-out and setting: as for B8, the figure is 0.08 OD.

The next assay concerns the target T2, human MSLN-R2-his protein. Put plainly: ELISA on coated antigen, antibody 20 nM.
Procedure: as §1
B1 returned an OD450 of 2.38 OD.
Same read-out and setting: as for B2, the figure is 0.09 OD; as for B3, 0.07 OD.
Still for that read-out and setting: as for B4, the figure is 0.05 OD; as for B5, 0.08 OD; as for B6, 0.09 OD.
The same measure, in the same setting: the result for B7 reads 0.06 OD; that for B8, 0.06 OD.

In the next assay the target is T2, human MSLN-R2-his protein. Nature of the assay: ELISA on coated antigen, antibody 0.02 nM.
Procedure: as §1
Take B1: the OD450 is 1.22 OD.
On the same count and under the same terms, the result for B2 reads 0.05 OD.
The same measure, in the same setting: the result for B3 reads 0.05 OD.
On the same count and under the same terms, as for B4, the figure is 0.05 OD; as for B5, 0.05 OD; as for B6, 0.05 OD.
B7 registered an OD450 of 0.05 OD.
The same measure, in the same setting: the result for B8 reads 0.05 OD.

The target of a further assay is T1, human MSLN-R3-his protein. Nature of the assay: ELISA on coated antigen, no antibody (blank, column 'none').
B1 gave an OD450 of 0.07 OD.
On the same count and under the same terms, the result for B2 reads 0.07 OD.
Still for that read-out and setting: as for B3, the figure is 0.08 OD.
Same read-out and setting: the result for B4 reads 0.09 OD; that for B5, 0.07 OD.
In the case of B6, the OD450 was determined as 0.07 OD.
On to B7, for which the OD450 was determined as 0.06 OD.
The same measure, in the same setting: the result for B8 reads 0.06 OD.

A further assay concerns the target T2, human MSLN-R2-his protein. The description is as above.
Procedure: as §1
As to B1, the OD450 stood at 0.06 OD.
B2: the OD450 turned out to be 0.06 OD.
Same read-out and setting: the result for B3 reads 0.06 OD; that for B4, 0.06 OD; that for B5, 0.06 OD.
The same measure, in the same setting: the result for B6 reads 0.06 OD; that for B7, 0.06 OD; that for B8, 0.06 OD.

The next assay addresses T1, human MSLN-R3-his protein. Nature of the assay: ELISA on coated antigen, antibody 0.2 nM.
Procedure: as §1
B1 displayed an OD450 of 0.06 OD.
In turn, B2 displayed an OD450 of 0.06 OD.
The same measure, in the same setting: as for B3, the figure is 2.64 OD.
The same measure, in the same setting: as for B4, the figure is 1.9 OD; as for B5, 2.45 OD.
The molecule B6 showed an OD450 of 2.6 OD.
Still for that read-out and setting: as for B7, the figure is 1.37 OD; as for B8, 1.67 OD.

Values taken from patent US20250250357A1 (NANJING ZAIMING PHARMACEUTICAL, published 2025).
